Test in all cases: not read
Substrate in data set [1]: CN1CC=C(c2ccc[nH]2)CC1
Description: (§1) Km against bovine liver Monoamine oxidase B
Substrate in data set [2]: CN1CC=C(c2cccn2C)CC1
Description: as §1
Substrate in data set [3]: CN1CC=C(c2ccncc2)CC1
Description: as §1
Substrate in data set [4]: CN1CC=C(n2ccc3ccccc32)CC1
Description: as §1
Substrate in data set [5]: CN1CC=C(n2cccc2)CC1
Description: as §1
Substrate in data set [6]: CN1CC=C(n2cnc3ccccc32)CC1
Description: as §1
Substrate in data set [7]: CN1CC=C(n2ncc3ccccc32)CC1
Description: as §1
Substrate in data set [8]: CN1CC=C(n2nnc3ccccc32)CC1
Description: as §1

B1: Amine oxidase [flavin-containing] B (Bos taurus) (protein)
chain: MSSKCDVVVVGGGISGMAAAKLLHDSGLNVIVLEARDRVGGRTYTLRNQKVKYVDLGGSYVGPTQNHILRLSKELGLETYKVNEVERLIHHTKGKSYPFRGSFPSVWNPITYLDHNNLWRTMDDMGREIPSDAPWKAPLAEQWDLMTMKELLDKICWTESSKQLAILFVNLCVTAEIHEVSALWFLWYVKQCGGTTRIFSTSNGGQERKFVGGSGQVSERIMDLLGDRVKLERPVIHIDQTGENVLVETLNHELYEAKYVISAVPPVLGMKIHFNPPLPMMRNQLITRVPLGSVIKSIVYYKEPFWRNMDYCGSMIIEGEEAPVAYALDDTKPDGSYPAIIGFILAHKARKLARLTKEERLKKLCDLYAKVLGSQEALHPVHYEEKNWCEEQYSGGCYTSYFPPGIMTQYGRVLRQPVGRIYFAGTETATHWSGYMEGAVEAGERAAREILHAMGKIPEDEIWLPEPESVDVPAKPITTTFLQRHLPSVPGLLKLIGLTTIFSATALGFLAHKRGLLVRI
For the protein B1, the Km (in general, the concentration of substrate that gives half-maximal velocity) came to 1800 µM in data set [1]; 200 µM in data set [2]; 2400 µM in data set [3]; 110 µM in data set [4]; 650 µM in data set [5]; 900 µM in data set [6]. Further, the Km in data set [7] was 100 µM; in data set [8], 80 µM. Further, the catalytic constant (kcat) (usually the maximal rate divided by the concentration of active sites) came out at 1.42 s⁻¹ in data set [1]; 6 s⁻¹ in data set [2]; 0.233 s⁻¹ in data set [3]; 6.9 s⁻¹ in data set [4]; 4.47 s⁻¹ in data set [5]; 3.33 s⁻¹ in data set [6]. For the same protein, the kcat came to 2 s⁻¹ in data set [7] and 0.9 s⁻¹ in data set [8].
